In patent US20210403506A1 (XDCEXPLORER SHANGHAI, published 2021):
Square brackets hold non-standard residues; d marks the D form. Ends that are not written are not given here. * marks the point of attachment. Pro(diF) = difluoro-proline, as coded in the source; PEG8 = NCCOCCOCCOCCOCCOCCOCCOCCOCCC(=O)O; dOic = O=C(O)[C@H]1C[C@H]2CCCC[C@H]2N1; 1Nal = N[C@@H](Cc1cccc2ccccc12)C(=O)O; 2Nal = N[C@@H](Cc1ccc2ccccc2c1)C(=O)O; dNMeY = CN[C@H](Cc1ccc(O)cc1)C(=O)O; Hydrocinnamoyl = O=C(CCc1ccccc1)*; NMehLeu = CN[C@@H](CCC(C)C)C(=O)O; Palmitoyl = CCCCCCCCCCCCCCCC(=O)*; NMeF = CN[C@@H](Cc1ccccc1)C(=O)O; Myristoyl = CCCCCCCCCCCCCC(=O)*; Tic = O=C(O)[C@@H]1Cc2ccccc2CN1; dTic = O=C(O)[C@H]1Cc2ccccc2CN1; NMeL = CN[C@@H](CC(C)C)C(=O)O; Lauroyl = CCCCCCCCCCCC(=O)*; NHoSer = not defined here; NMeS = CN[C@@H](CO)C(=O)O; hSer = N[C@@H](CCO)C(=O)O; βAla = NCCC(=O)O

T1: human Chemokine like receptor 1 (human, UniProt Q99788 1-373)
T1 sequence (looked up): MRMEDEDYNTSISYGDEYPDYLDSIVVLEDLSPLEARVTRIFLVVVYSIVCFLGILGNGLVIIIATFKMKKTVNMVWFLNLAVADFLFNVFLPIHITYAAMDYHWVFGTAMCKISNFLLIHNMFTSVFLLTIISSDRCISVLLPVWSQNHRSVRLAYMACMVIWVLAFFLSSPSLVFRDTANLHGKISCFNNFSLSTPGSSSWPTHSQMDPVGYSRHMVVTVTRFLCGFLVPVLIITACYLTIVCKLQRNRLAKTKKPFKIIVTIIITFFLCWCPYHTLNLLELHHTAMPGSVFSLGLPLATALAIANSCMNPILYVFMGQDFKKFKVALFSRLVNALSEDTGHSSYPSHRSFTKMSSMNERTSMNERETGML


Biological target: T1, human Chemokine like receptor 1
Assay: cell-based or functional assay

Binder	EC50 (µM), activation of Tango CMKLR1-bla U2OS cells [µM]
[dY]F[NMeL]P[dS]Q[1Nal][dA][Tic]S-OH (N-terminus assumed; SMILES CC(C)C[C@@H](C(=O)N1CCC[C@H]1C(=O)N[C@H](CO)C(=O)N[C@@H](CCC(N)=O)C(=O)N[C@@H](Cc1cccc2ccccc12)C(=O)N[C@H](C)C(=O)N1Cc2ccccc2C[C@H]1C(=O)N[C@@H](CO)C(=O)O)N(C)C(=O)[C@H](Cc1ccccc1)NC(=O)[C@H](N)Cc1ccc(O)cc1) [YW-165]	0.0015
[dY]F[NMeL]P[dS]QF[dA][Tic][NHoSer]-OH (reading uncertain; also: printed as (D-Tyr)-Phe-(NMe-Leu)-Pro-(D-Ser)-Gln-Phe-(D-Ala)-Tic-(NHoSer)) [YW-172]	0.0058
[dY]F[NMeL]P[dS]QF[dA][Tic][NMeS]-OH (N-terminus assumed; SMILES CC(C)C[C@@H](C(=O)N1CCC[C@H]1C(=O)N[C@H](CO)C(=O)N[C@@H](CCC(N)=O)C(=O)N[C@@H](Cc1ccccc1)C(=O)N[C@H](C)C(=O)N1Cc2ccccc2C[C@H]1C(=O)N(C)[C@@H](CO)C(=O)O)N(C)C(=O)[C@H](Cc1ccccc1)NC(=O)[C@H](N)Cc1ccc(O)cc1) [YW-166]	0.005
[dY]F[NMeL]P[dS]QF[dA][dOic]S-OH [YW-176]	0.0038
[dY]F[NMeL]P[dS]QF[dA][dTic][NMeS] [YW-182]	0.041
[dY]F[NEtL]P[dS]QF[dA][Tic]S [YW-183]	0.0092
[dNMeY]F[NMeL]P[dS]Q[1Nal][dA][Tic]S-OH (N-terminus assumed; SMILES CN[C@H](Cc1ccc(O)cc1)C(=O)N[C@@H](Cc1ccccc1)C(=O)N(C)[C@@H](CC(C)C)C(=O)N1CCC[C@H]1C(=O)N[C@H](CO)C(=O)N[C@@H](CCC(N)=O)C(=O)N[C@@H](Cc1cccc2ccccc12)C(=O)N[C@H](C)C(=O)N1Cc2ccccc2C[C@H]1C(=O)N[C@@H](CO)C(=O)O) [YW-168]	0.0012
Hydrocinnamoyl-[dY]F[NEtL]P[dS]QF[dA][Tic]S [YW-185]	0.0059
[dY]F[NMeF]P[dS]QF[dA][Tic]S-OH (N-terminus assumed; SMILES C[C@@H](NC(=O)[C@H](Cc1ccccc1)NC(=O)[C@H](CCC(N)=O)NC(=O)[C@@H](CO)NC(=O)[C@@H]1CCCN1C(=O)[C@H](Cc1ccccc1)N(C)C(=O)[C@H](Cc1ccccc1)NC(=O)[C@H](N)Cc1ccc(O)cc1)C(=O)N1Cc2ccccc2C[C@H]1C(=O)N[C@@H](CO)C(=O)O) [YW-100]	0.042
[dY]F[NMeL]P[dS]Q[2Nal][dA][Tic]S-OH (N-terminus assumed; SMILES CC(C)C[C@@H](C(=O)N1CCC[C@H]1C(=O)N[C@H](CO)C(=O)N[C@@H](CCC(N)=O)C(=O)N[C@@H](Cc1ccc2ccccc2c1)C(=O)N[C@H](C)C(=O)N1Cc2ccccc2C[C@H]1C(=O)N[C@@H](CO)C(=O)O)N(C)C(=O)[C@H](Cc1ccccc1)NC(=O)[C@H](N)Cc1ccc(O)cc1) [YW-164]	0.0011
Hydrocinnamoyl-[dY]F[NPrL]P[dS]QF[dA][Tic]S [YW-186]	0.011
[dY]F[NMeL]P[dS]QF[dA][Tic][hSer]-OH (N-terminus assumed; SMILES CC(C)C[C@@H](C(=O)N1CCC[C@H]1C(=O)N[C@H](CO)C(=O)N[C@@H](CCC(N)=O)C(=O)N[C@@H](Cc1ccccc1)C(=O)N[C@H](C)C(=O)N1Cc2ccccc2C[C@H]1C(=O)N[C@@H](CCO)C(=O)O)N(C)C(=O)[C@H](Cc1ccccc1)NC(=O)[C@H](N)Cc1ccc(O)cc1) [YW-171]	0.029
{Lauroyl-PEG8}-[βAla][βAla][dNMeY]F[NMeL]P[dS]Q[2Nal][dA][Tic][NMeS] [YW-181]	0.0022
{Palmitoyl-PEG8}-[βAla][βAla][dNMeY]F[NMeL]P[dS]Q[2Nal][dA][Tic][NMeS] [YW-179]	0.0021
{Myristoyl-PEG8}-[βAla][βAla][dNMeY]F[NMeL]P[dS]Q[2Nal][dA][Tic][NMeS] [YW-180]	0.0014
{Palmitoyl-PEG8}-GG[dNMeY]F[NMeL]P[dS]Q[2Nal][dA][Tic][NMeS] [YW-178]	0.0021
[dY]F[NMeL]P[dHoSer]QF[dA][Tic]S-OH [YW-175]	0.091
[dY]F[NPrL]P[dS]QF[dA][Tic]S [YW-184]	0.016
[dY]F[NMehLeu]P[dS]QF[dA][Tic]S-OH (N-terminus assumed; SMILES CC(C)CC[C@@H](C(=O)N1CCC[C@H]1C(=O)N[C@H](CO)C(=O)N[C@@H](CCC(N)=O)C(=O)N[C@@H](Cc1ccccc1)C(=O)N[C@H](C)C(=O)N1Cc2ccccc2C[C@H]1C(=O)N[C@@H](CO)C(=O)O)N(C)C(=O)[C@H](Cc1ccccc1)NC(=O)[C@H](N)Cc1ccc(O)cc1) [YW-101]	0.0029
[dY]F[NMeL][Pro(diF)][dS]QF[dA][Tic]S-OH [YW-174]	0.0012
[dY]F[NMeL]P[dS]QF[dA][Tic][NMeHoSer]-OH [YW-177]	0.025
[dNMeY]F[NMeL]P[dS]Q[2Nal][dA][Tic]S-OH (N-terminus assumed; SMILES CN[C@H](Cc1ccc(O)cc1)C(=O)N[C@@H](Cc1ccccc1)C(=O)N(C)[C@@H](CC(C)C)C(=O)N1CCC[C@H]1C(=O)N[C@H](CO)C(=O)N[C@@H](CCC(N)=O)C(=O)N[C@@H](Cc1ccc2ccccc2c1)C(=O)N[C@H](C)C(=O)N1Cc2ccccc2C[C@H]1C(=O)N[C@@H](CO)C(=O)O) [YW-167]	0.0008
